# Columns and labels:
# [1] = biological target: CD47-expressing CHO-K1 cells (UniProt Q08722); test: flow cytometry
# [2] = biological target: TIGIT-expressing CHO-K1 cells (UniProt Q495A1); test: flow cytometry
# Chain of TIGIT-expressing CHO-K1 cells (Q495A1 22-244): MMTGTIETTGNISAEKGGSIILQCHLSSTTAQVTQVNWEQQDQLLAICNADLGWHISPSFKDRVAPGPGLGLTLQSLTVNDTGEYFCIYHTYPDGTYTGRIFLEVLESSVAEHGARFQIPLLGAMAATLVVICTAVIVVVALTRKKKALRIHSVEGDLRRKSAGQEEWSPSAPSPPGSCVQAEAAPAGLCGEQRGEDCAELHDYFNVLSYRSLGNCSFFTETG
# Chain of CD47-expressing CHO-K1 cells (Q08722 19-323): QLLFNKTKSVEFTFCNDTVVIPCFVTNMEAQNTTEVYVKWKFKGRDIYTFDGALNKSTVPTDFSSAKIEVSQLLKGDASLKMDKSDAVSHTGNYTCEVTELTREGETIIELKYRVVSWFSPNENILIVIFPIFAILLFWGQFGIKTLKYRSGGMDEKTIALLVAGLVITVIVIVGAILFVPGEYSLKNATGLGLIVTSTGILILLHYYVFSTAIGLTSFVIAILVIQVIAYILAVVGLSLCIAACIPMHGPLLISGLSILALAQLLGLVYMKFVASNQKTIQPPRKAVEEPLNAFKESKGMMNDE
substance,measurement,setting,value
Human IgG,EC50,[1],0.992 pM
same,EC50,[2],0.015 nM
